Results from publication PMC10786891, “Massively parallel profiling of RNA-targeting CRISPR-Cas13d”.
Numbering of substitutions follows the chain as printed. Numbers in names are those of the source.

B1: target 1 insC 3' of 22,insG 3' of 6 (mixed)
RNA 1: CACCCGUGCAAAAAUGCAGGGGUCUAAAACUGAGCGGAUAACCUCUCUAUGG
RNA 2: GGGAAUGGAUCCACAUCUACGAAUUCGUACCCAUAGAGAGGUUAUCCGGCUCACCGAGAUCGGAAGAGCACACGU
B2: target 1 U11G,U19C (mixed)
RNA 1: B1 RNA 1
RNA 2: GGGAAUGGAUCCACAUCUACGAAUUCGUACCACAGAGAGGGUAUCCGCUCACCGAGAUCGGAAGAGCACACGU
B3: target 1 insG 3' of 18,insU 3' of 15 (mixed)
RNA 1: B1 RNA 1
RNA 2: GGGAAUGGAUCCACAUCUACGAAUUCGUACCAUAGGAGUAGGUUAUCCGCUCACCGAGAUCGGAAGAGCACACGU
B4: target 1 insG 3' of 19,insG 3' of 1 (mixed)
RNA 1: B1 RNA 1
RNA 2: B1 RNA 2 with C32A, A33U, U34G, G49C, C50U, U51C, C52A, A53G
B5: target 1 insU 3' of 22,insA 3' of 13 (mixed)
RNA 1: B1 RNA 1
RNA 2: B1 RNA 2 with C31U, G41A, U42G, A44U, U45A, C46U, G48C
B6: target 1 A1G,G5A (mixed)
RNA 1: B1 RNA 1
RNA 2: B2 RNA 2 with C33U, G41U, G47A, A51G
B7: target 1 insA 3' of 6,insC 3' of 3 (mixed)
RNA 1: B1 RNA 1
RNA 2: GGGAAUGGAUCCACAUCUACGAAUUCGUACCAUAGAGAGGUUAUCCAGCUCCACCGAGAUCGGAAGAGCACACGU
B8: target 1 insG 3' of 19,insA 3' of 2 (mixed)
RNA 1: B1 RNA 1
RNA 2: B1 RNA 2 with C32A, A33U, U34G, G49C, C50U, U51C, C52A
B9: target 1 G13A,A16C (mixed)
RNA 1: B1 RNA 1
RNA 2: B2 RNA 2 with C33U, A36C, G39A, G41U
B10: target 1 insG 3' of 19,insC 3' of 1 (mixed)
RNA 1: B1 RNA 1
RNA 2: B1 RNA 2 with C32A, A33U, U34G, G49C, C50U, U51C, C52A, A53C
B11: target 1 insG 3' of 4,insU 3' of 2 (mixed)
RNA 1: B1 RNA 1
RNA 2: B7 RNA 2 with A47G, G48C, C49G, C52U
B12: target 1 C4G,G5U (mixed)
RNA 1: B1 RNA 1
RNA 2: B2 RNA 2 with C33U, G41U, G47U, C48G
B13: target 1 C2U,C4G (mixed)
RNA 1: B1 RNA 1
RNA 2: B2 RNA 2 with C33U, G41U, C48G, C50U
B14: target 1 U11G,A18U (mixed)
RNA 1: B1 RNA 1
RNA 2: B2 RNA 2 with C33U, A34U
B15: target 1 insA 3' of 11,insA 3' of 4 (mixed)
RNA 1: B1 RNA 1
RNA 2: B7 RNA 2 with U42A, A43U, U44A, C45U, A47C, U50A, C51U
B16: target 1 insC 3' of 13,insA 3' of 12 (mixed)
RNA 1: B1 RNA 1
RNA 2: B3 RNA 2 with G36A, A37G, G38A, U39G, A40C, G42A
B17: target 1 U8A,U10C (mixed)
RNA 1: B1 RNA 1
RNA 2: B2 RNA 2 with C33U, G41U, U42C, U44A
B18: target 1 insA 3' of 11,insG 3' of 6 (mixed)
RNA 1: B1 RNA 1
RNA 2: B7 RNA 2 with U42A, A43U, U44A, C45U, A47C, C49G, U50C, C51U
B19: target 1 C6G,A9C (mixed)
RNA 1: B1 RNA 1
RNA 2: B2 RNA 2 with C33U, G41U, A43C, C46G
B20: target 1 insU 3' of 7 (mixed)
RNA 1: B1 RNA 1
RNA 2: GGGAAUGGAUCCACAUCUACGAAUUCGUACCAUAGAGAGGUUAUCUCGCUCACCGAGAUCGGAAGAGCACACGU
B21: target 1 insG 3' of 11,insG 3' of 8 (mixed)
RNA 1: B1 RNA 1
RNA 2: B3 RNA 2 with G36A, A37G, G38A, U39G, A40G, G41U, U44A, A45U, U46G
B22: target 1 insC 3' of 12,insU 3' of 7 (mixed)
RNA 1: B1 RNA 1
RNA 2: B7 RNA 2 with U41C, A43U, U44A, C45U, A47U, G48C, C49G, U50C, C51U
B23: target 1 insC 3' of 15,insG 3' of 1 (mixed)
RNA 1: B1 RNA 1
RNA 2: B7 RNA 2 with A38C, G39A, U41G, A43U, U44A, C45U, A47C, C52A, A53G
B24: target 1 insC 3' of 11,insC 3' of 5 (mixed)
RNA 1: B1 RNA 1
RNA 2: B7 RNA 2 with U42C, A43U, U44A, C45U, A47C, U50C, C51U
B25: target 1 C6G,A16C (mixed)
RNA 1: B1 RNA 1
RNA 2: B2 RNA 2 with C33U, A36C, G41U, C46G
B26: target 1 insA 3' of 6,insA 3' of 4 (mixed)
RNA 1: B1 RNA 1
RNA 2: B7 RNA 2 with U50A, C51U
B27: target 1 insA 3' of 22,insC 3' of 19 (mixed)
RNA 1: B1 RNA 1
RNA 2: B3 RNA 2 with C31A, A32C, U33A, A34U, G35C, G36A, A37G, G38A, U39G
B28: target 1 C2A,A18U (mixed)
RNA 1: B1 RNA 1
RNA 2: B2 RNA 2 with C33U, A34U, G41U, C50A
B29: target 1 insC 3' of 20,insA 3' of 11 (mixed)
RNA 1: B1 RNA 1
RNA 2: B3 RNA 2 with U33C, A34U, G35A, U39A, A40G, G42U, U43A
B30: target 1 insU 3' of 21,insU 3' of 20 (mixed)
RNA 1: B1 RNA 1
RNA 2: B3 RNA 2 with A32U, U33A, A34U, G35U, G36A, A37G, G38A, U39G
B31: target 1 insC 3' of 13,insA 3' of 7 (mixed)
RNA 1: B1 RNA 1
RNA 2: B7 RNA 2 with G40C, U41G, A43U, U44A, C45U, G48C, C49G, U50C, C51U
B32: target 1 G12U,A14C (mixed)
RNA 1: B1 RNA 1
RNA 2: B2 RNA 2 with C33U, A38C, G40U, G41U
B33: target 1 U10C,G17C (mixed)
RNA 1: B1 RNA 1
RNA 2: B2 RNA 2 with C33U, G35C, G41U, U42C

Biological target: T1, EsCas13d, nuclease-dead (Eubacterium siraeum, UniProt B0MS50, R295A;H300A;R849A;H854A)
T1 sequence: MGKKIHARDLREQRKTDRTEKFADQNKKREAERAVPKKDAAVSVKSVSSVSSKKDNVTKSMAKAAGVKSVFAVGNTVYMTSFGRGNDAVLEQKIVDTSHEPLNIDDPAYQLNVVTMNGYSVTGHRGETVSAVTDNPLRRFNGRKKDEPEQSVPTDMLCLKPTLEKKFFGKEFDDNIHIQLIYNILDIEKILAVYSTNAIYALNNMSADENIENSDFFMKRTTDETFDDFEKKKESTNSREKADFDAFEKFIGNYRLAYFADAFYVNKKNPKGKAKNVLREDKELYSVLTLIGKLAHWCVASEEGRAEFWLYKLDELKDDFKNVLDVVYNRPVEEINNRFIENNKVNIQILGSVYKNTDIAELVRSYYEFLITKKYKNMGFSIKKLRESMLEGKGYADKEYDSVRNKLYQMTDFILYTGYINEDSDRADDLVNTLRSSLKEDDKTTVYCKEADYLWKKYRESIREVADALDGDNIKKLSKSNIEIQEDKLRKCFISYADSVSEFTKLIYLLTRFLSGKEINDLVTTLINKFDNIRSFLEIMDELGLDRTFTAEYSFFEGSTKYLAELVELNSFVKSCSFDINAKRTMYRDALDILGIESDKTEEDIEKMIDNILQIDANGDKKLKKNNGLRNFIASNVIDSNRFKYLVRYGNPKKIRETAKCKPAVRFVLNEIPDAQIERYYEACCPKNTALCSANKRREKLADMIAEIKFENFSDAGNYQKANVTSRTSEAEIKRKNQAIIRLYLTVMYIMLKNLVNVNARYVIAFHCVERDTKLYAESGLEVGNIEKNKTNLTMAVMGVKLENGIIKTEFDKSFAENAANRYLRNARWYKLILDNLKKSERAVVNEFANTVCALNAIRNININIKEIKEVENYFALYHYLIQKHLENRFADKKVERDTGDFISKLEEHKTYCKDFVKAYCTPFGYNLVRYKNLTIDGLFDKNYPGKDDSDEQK
Assay: crRNA (strand 1, pre-loaded); Mg2+; 40 mM Tris-HCl pH 7.5, 150 mM NaCl, 6 mM MgCl2, 1 mM DTT, 0.1% Tween-20, 0.2 mg/ml BSA; 25 C; 10 min per concentration, then washed
Conditions: tags: His6-TwinStrep-SUMO cleaved; N-terminal SNAP kept (SNAP-Surface 488); label: 3' end held by stalled T7 RNA polymerase

Row | Binder | Kd [nM]
1 | B1 | 25.2 ± 3.3
2 | B2 | 86 ± 18
3 | B3 | 70 ± 17
4 | B4 | 87 ± 26
5 | B5 | 17.1 ± 1.9
6 | B6 | 35 ± 4
7 | B7 | 20 ± 1.3
8 | B8 | 85 ± 26
9 | B9 | 28.8 ± 1.6
10 | B10 | 59 ± 7
11 | B11 | 8.5 ± 0.4
12 | B12 | 34.2 ± 2.7
13 | B13 | 5.1 ± 0.5
14 | B14 | 100 ± 25
15 | B15 | 9.6 ± 0.6
16 | B16 | 15.7 ± 1
17 | B17 | 19.2 ± 1.2

Row | Binder | Kd [nM]
18 | B18 | 15.7 ± 1.1
19 | B19 | 11.7 ± 0.6
20 | B20 | 14.8 ± 1.2
21 | B21 | 33.3 ± 1.5
22 | B22 | 26.9 ± 1.9
23 | B23 | 16.7 ± 1.3
24 | B24 | 18.2 ± 1.4
25 | B25 | 42.2 ± 1.8
26 | B26 | 28.5 ± 2.8
27 | B27 | 51 ± 7
28 | B28 | 24.2 ± 1.2
29 | B29 | 11.9 ± 0.7
30 | B30 | 27.8 ± 3.3
31 | B31 | 14.2 ± 0.9
32 | B32 | 42 ± 6
33 | B33 | 63 ± 19
